Measured values taken from patent US20200062843A1 (CRAGE MEDICAL, published 2020).
Numbering of substitutions follows the chain as printed. Like-named read-outs stand apart in the source and are kept apart here.

T1: human CD19 (human, UniProt P15391 20-556)
T1 construct: In the killing assay it is also on Daudi and Raji cells; also called K562-CD19; K562 cells stably transfected with human CD19
T1 sequence: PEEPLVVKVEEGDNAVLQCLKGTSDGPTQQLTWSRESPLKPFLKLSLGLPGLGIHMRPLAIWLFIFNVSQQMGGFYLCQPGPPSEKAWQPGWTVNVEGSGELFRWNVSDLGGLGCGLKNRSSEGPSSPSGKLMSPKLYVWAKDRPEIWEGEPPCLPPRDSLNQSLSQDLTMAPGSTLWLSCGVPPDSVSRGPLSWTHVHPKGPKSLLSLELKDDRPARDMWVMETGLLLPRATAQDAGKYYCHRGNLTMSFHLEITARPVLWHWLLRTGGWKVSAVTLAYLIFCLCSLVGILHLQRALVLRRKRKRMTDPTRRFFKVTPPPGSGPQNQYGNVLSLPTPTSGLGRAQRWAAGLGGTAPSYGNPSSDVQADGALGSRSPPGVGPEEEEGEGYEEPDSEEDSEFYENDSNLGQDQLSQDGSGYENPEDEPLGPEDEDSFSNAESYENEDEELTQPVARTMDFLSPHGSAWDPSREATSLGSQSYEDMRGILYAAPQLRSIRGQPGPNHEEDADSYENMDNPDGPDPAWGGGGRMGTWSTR

T2: human CD19 (UniProt P15391 20-556)
T2 chain: T1 sequence

B1: humanized antibody huHD37 (scFv_Fc fusion antibody) (Fc fusion)
scFv: QVQLVQSGAEVKKPGSSVKVSCKASGYTFSSYWMNWVRQAPGQGLEWMGQIWPGDGDTNYNGKFKGRVTITADESTSTAYMELSSLRSEDTAVYYCARRETTTVGRYYYAMDYWGQGTTVTVSSGGGGSGGGGSGGGGSDIVLTQSPASLAVSPGQRATITCKASQSVDYDGDSYLNWYQQKPGQPPKLLIYDASNLVSGVPARFSGSGSGTDFTLTINPVEANDTANYYCQQSTEDPWTFGQGTKVEIKR
notes: also called humanized huHD37; not shown: human IgG1 Fc fragment carried by the eukaryotic expression vector V152
B2: clone 6B3 (scFv_Fc) (Fc fusion)
scFv: B1 scFv with M34I, D57E, N59H
B3: clone 8E3 (scFv_Fc) (Fc fusion)
scFv: B1 scFv with Q166H, V168L, S174N
notes: Only the light chain is said to differ from huHD37; not shown: Human Fc fragment of expression vector V152 (and any junction residues to it)
B4: murine antibody HD37 (scFv chimeric with human IgG1 Fc) (Fc fusion)
VH: QVQLQQSGAELVRPGSSVKISCKASGYAFSSYWMNWVKQRPGQGLEWIGQIWPGDGDTNYNGKFKGKATLTADESSSTAYMQLSSLASEDSAVYFCARRETTTVGRYYYAMDYWGQGTTVTVSS
VL: DIQLTQSPASLAVSLGQRATISCKASQSVDYDGDSYLNWYQQIPGQPPKLLIYDASNLVSGIPPRFSGSGSGTDFTLNIHPVEKVDAATYHCQQSTEDPWTFGGGTKLEIKR
notes: also called parental antibody HD37; parental HD37

Tests used:
[1] = molecular target: T1, human CD19; assay: flow cytometry, scFv_Fc on K562-CD19 cells, FITC anti-human Fc
Method: (§1) K562 cells (K562-CD19) stably expressing human CD19 and K562 were used, and cells were harvested, washed with complete growth medium and plated into U-bottom microtiter plates at approximately 1−5×10⁵ cells/well. The gradient-diluted huHD37 scFv_Fc fusion antibody was incubated with K562-CD19/K562 for 30 minutes on ice, and then incubated with FITC-labeled anti-human Fc as a secondary antibody. After two washing steps, the analysis was performed using Guava easyCyte™ HT System, and the experimental data was processed using GraphPad Prism to obtain an EC50.
K562 cells stably expressing human CD19 (K562-CD19) and K562 were used, and cells were harvested, washed with complete growth medium, and plated into U-bottom microtiter plates at approximately 1−5×10⁵ cells/well. The gradient diluted scFv_Fc fusion antibody was incubated with K562-CD19/K562 for 30 minutes on ice, and then incubated with FITC-labeled anti-human Fc as a secondary antibody. After two washing steps, the analysis was performed using Guava easyCyte™ HT System, and the experimental data was processed using GraphPad Prism to obtain an EC50.

[2] = molecular target: T2, human CD19; assay: FACS cell binding; avid
[3] = molecular target: T2, human CD19; assay: FACS cell binding; avid
[4] = molecular target: T1, human CD19; assay: flow cytometry on K562-CD19 cells
Method: as §1

Binder | binding result [1] | EC50 [2] [nM] | EC50 [3] [nM] | binding result [4]
B1 | binds | 4.7 |  | 
B2 |  |  | 2.74 | 
B3 | binds |  | 4.72 | 
B4 |  |  |  | binds
